# In patent US20170360911A1:
# B1: MAGE-1161-169 peptide (peptide)
# peptide: EADPTGHSY
# B2: VSV52-59 peptide (peptide)
# peptide: RGYVYQGL
# modifications: not checked
# Legend:
# HLA-A*02:01 (human) = experiment: T2-A24 MHC class I stabilization, flow cytometry, anti-HLA-A02 BB7.2-FITC, peptide 100 ug/mL; settings: remark: other sources report otherwise
Binder,MFI (solvent ratio) (ratio to solvent) (HLA-A*02:01 (human)),MFI (solvent ratio) (ratio to solvent) (HLA-A*24:02 (human))
B1,1,
B2,,1
